The nature of the data set: soluble on expression in E. coli; label from the status in PepcDB or PDB records.
In the case of “MGSDKIHHHHHHMSLAPSVIEPAHEEDAFMDLLATSALDDPLAAARDATADMLRQRQGDHSLPQPFYNDPRVFALEMREIFEHEWLFVGMTCEIPAKGNYLTVQIGDNPIIVVRGDQGTIHAFHNVCRHRGSRLCTQAKGKVAKLVCPYHQWTYELDGRLLFAGQDMGEDFDLGAHGLKPVAVTHAGGFLFVSLADQPPAIDDFLATLDDYLAPYEMDNVKVAAESNIVEQANWKLVIENNRECYHCNGAHPELLNSLIEYDDTDDPRATPAYRDLVARQQAHWEQQQVPWALKRFGKRNRLTRTPMIEGVVSMTMDGRPASQRLMGRLPNPDMGSLRILHLPNSWNHFMGDHAVVFRVLPLGPQQTLVTTKWLVHRDAQEGVDYDPEWMRKVWDATTDQDRQLAEENQRGINSVAYQPGPYSRTYEFGVIDFVDWYSDTMLSRLDAEAPSLHIVQG”, the “soluble on expression in E. coli” value is given as “not soluble”.

Take “GPVGYGAATTGGGNKVPVNVATFEAMQSAIDSYSGSGGLVLNYTGKFDFGTIKDVCAQWKLPAKTVQIKNKSDVTIKGANGSAANFGIRVVGNAHNVIIQNMTIGLLQGGEDADSISLEGNSSGEPSKIWVDHNTVFASLTKCSGAGDASFDGGIDMKKGVHHVTVSYNYVYNYQKVALNGYSDSDTKNSAARTTYHHNRFENVESRVPLQRFGLSHIYNNYFNNVTTSGINVRMGGIAKIESNYFENIKNPVTSRDSSEIGYWDLINNYVGSGITWGTPDGSKPYANATNWISTKVFPESLGYIYTVTPAAQVKAKVIATAGAGKNLAE”: the “soluble on expression in E. coli” value is “soluble”.

For “MGSSHHHHHHGGTGENLYFQGGSGSRFYTAKEVREHAFHDDAYVSLNGKVLDLTPLIAAYKEMPKFAHLAKPLVQVAGTDISHWWDAEANDLRSCVDVNSGMRTYAMPLGRVPHMPTIYPDSNIDLNYDIPWWKDPQYIIGALTSRTRRIRIVNTLTGDETTLDVCAEETLEELLRERYLSINAHARSYTWVRLDPDPRELDMSRTLEDNGIHDEADSFEDLGLNADYYIPAIHLYYNDDLTEA”, the “soluble on expression in E. coli” value was “soluble”.

For the sequence “QPKTFTVRIVTMDAEMEFNCEMKWKGKDLFDLVCRTLGLRETWFFGLQYTIKDTVAWLKMDKKVLDHDVSKEEPVTFHFLAKFYPENAEEELVQEITQHLFFLQVKKQILDEKVYCPPEASVLLASYAVQAKYGDYDPSVHKRGFLAQEELLPKRVINLYQMTPEMWEERITAWYAEHRGRARDEAEMEYLKIAQDLEMYGVNYFTIRNKKGTELLLGVDALGLHIYDPENRLTPKISFPWNEIRNISYSDKEFTIKPLDKKIDVFKFNSSKLRVNKLILQLCIGNHDLFMRRRKADSLEVQQMKAQAREEKARKQMERQRLA”, the “soluble on expression in E. coli” value is recorded as “soluble”.

“EFRKLGEVCEILDNRRIPIAKNKRNPGIYPYYGANGIQDYIDSYIFDGDFVLVGEDGSVINKDNTPVVNWASGKIWVNNHAHVLQTKNELKLKFLYFYLQTIDVSYCVAGTPPKINQENLKKIAIPIPPLEIQQEIVKILDQFSI”: the “soluble on expression in E. coli” value is “not soluble”.

For “MSLGNYNSQYENYYRNLQNRSIRTSSYYKSSGFNRKNLGEKIIKKIEFQLIGTLVLFLAVFSLREVITPETKAACNYIKYTVSYNYDYSQILSYIEGFNLNDVETYASKIDMDSLKNQSVDYIENLKARVTGEKTFGAKIKQEYCLPINGKIASHFKQKDKDVLGNQYLNNGVDIKANSDLDVKAIYDGTVEKVGEDKDFGKYVMVDNGDGVESKYSNMDSFEVQRGDGVTKGEVLGKVKKNDDASKSYLHFEIMYMGENQDPENYFTFKEGHHHHHH”, the “soluble on expression in E. coli” value is recorded as “not soluble”.

In the case of “MSLKQPTSTTVTRTDYLKHKVKVPKHPKRIVASYLEDDLVALGIKPVVQWSVKNGSGTQAYLKEQLKGVPLIDYSLPYEAVTKAKPDLILIGTSSAVANGKYAQYNKIAPTYVVKNGTTVTWRQTFLDVAKVVNRQAKAKKVLAKYDKQVQTTRQALKKSGQHKVAVLWVTNNTAYMVNDNSASGALLYQDLQLGEPSLVKQVSKSATADWSAVSLEKLAKLDADDIFLVNSQKSASLFKDPLWKNIKAVKNNHLYQYGDSSSWQYSGPIAYSQMIDMVKTDLLKEGHHHHHH”, the “soluble on expression in E. coli” value was “soluble”.

“SGTQALLVEERARLERLLGARLEAAADQALARLVEANPQPVHLICDLTHRLLACSPARAAQFGVPLGELLDRSLWPYCSEEILRQEATLEELGWRELLAPPALEFASGANASAIVPIRRSRCRWTRMTLSDGRAVRLVETL”: the “soluble on expression in E. coli” value is “not soluble”.

With “MGSDKIHHHHHHMAQYSAQFNHAKVLVLGDVMLDRYWFGATNRISPEAPVPVVRVQQNEERAGGAANVAMNIASLNVPVQLLGLTGQDEAGAALTSLLQQQKIACDFVQLATHPTITKLRILSRHQQLLRLDFEEDFQNMTSADLLKKLESAVKNYGALILSDYGKGTLNEVQKMIQIARNANVPVLIDPKGTDFERYRGATLLTPNMSEFEAVVGKCHSEQEIIDKGLKLISEINLTALLVTRSEKGMTLLRPNQPVYHLPTEAKEVFDVTGAGDTVISVLATALADGRSFEEACYLANVAAGIVVGKLGTSTVSTVELENAIHGRTGTGFGVMTEAELKEAVKLAKDRGEKIVMTNGCFDILHPGHVSYLDNARKFGDRLIVAVNTDDSVKRLKGEERPINNLASRMAVLAGLSSVDWLVPFGEDTPQRLIGEVLPDLLVKGGDYKPEEIAGSKEVWANGGDVKVLNFENGFSTSNVIKKIKHLEK”, the “soluble on expression in E. coli” value is given as “not soluble”.

In the case of “MLRSVPFDLVTRLMTTHFVSRQIFIGSGRVGIGEHSENAGYQLSQRADYFHMKVGLQTTFDRPIINTRDESHSTDEYRRLHVIVGDANRMDVPQALKLGTTSMLLWLLEHADMAEIDLNEALGPLTLADPVEAMHTVSHDLTLAAPLPLETGGTTTAWQMQVTLRGLVYAAAATVYGTDTSGEPAWPDRSTRNIMAMWGQALADVATVRHADDDGRLTMREQASRLEWLLKWQLLEKLRRKTGSDWTDRRLAAVDLKWAALDPADSIFTRLAGQTERLVTDKQLAEAVGQAPADTRAWLRAEIVRRFPEQVIAASWSHLTVRGESSGDENVENSMVSLDMSNPLKFTESLCSEAFERVHTASGIVESLR”, the “soluble on expression in E. coli” value is listed as “not soluble”.

Take “MGGWEEREIRGHSLGHWLSAAAAMYETTGDKALLERIDRAVQELATIQDDVGYVGGVKRAHFDEMFSGEFQVGHFNIAGTWVPWYNLHKLFAGLIDVHQLTGHSLALTVVTKLADWAKKGTDQLTDDQFQRMLICEHGGMNEAMADLYTLTGHKDYLQLAIRFCHWAVLEPLANGIDELEGKHANTQIPKVIGAAKLFEITGDDTYRAIAEFFWRQVTNDRSYIIGGNSNSEHFGPANKETLGVETAETCNTYNMLKLTEHLFRWNRSSQLMDYYEKALYNHILASQDPDSGMKTYFVSLQPGHFKVYSSLEESFWCCFGTGLENPARYTRTIYDRDDRHIYVNLFMASEIHLKDLQVQIRQETNFPETDRTKLTFVKADGVSIKLHIRVPEWVAGPVTARINGKETFSESGADYLTIEREWQKGDEIEVHLPMELRIYEAKDDSHKVGIMYGPIVLAGTFGKDHFPETDIVPNHLSLHNHPLIDVPTLVATKKTPDQWIHPVEGRSLTFRTAAIGQPGNVQITLIPFYALHHERYTVYWNLMSEVEYEAFKARKEVESDQLQARTVDAVQPGEQQPEVEHQLKANHSETGYLNIMQKRWRDSRGEDGFFSYVMKVKPNQQMSLFVTYYGGDHGLFVDGKWCDRSFRILIDDEVIKEEQLLGKNPGETLDVYYPIPLALTEGKEEVVVTFASKEGTVAGGVYGVRMLCNLEHHHHHH”: the “soluble on expression in E. coli” value is recorded as “not soluble”.

Consider “MGSDKIHHHHHHMEHECDTLPHWLTGSPQGEAGHTPAACNSAVAAQPAYPAGTRQPEKSAHAAEASRAHDRTATGVAPTGFLTLFTEEEIGTPSPAARRAAPVISPLVRFGSAQDRIEFVRQRIRQLGFDSFSYSATRTSAHHKTMFVLTSYESRSWLTRYFRERYFELDPRVALASPTGLPFLWNTADMRADLPRAQMRSERLGGLIDMLEATGRKSGILTQMPLPEPELSASLCFNSETGNPRWMTESIVAETLMFAHMIHEFIWTHAKSVIGIAPAQQQRVTLSELQHAVLRAVVQGQRDKEIAYFLGLSPHNVDYHLRRLRQLFNVRNRVQLINVAQAYVS”, for which the “soluble on expression in E. coli” value is “not soluble”.

As to “MGSDKIHHHHHHMIKICSVAFLSLLLSASSLFAQTKTFAGADYSQGIVFVMENNQMVWKHKAPDSNDLWILPNGNILFTTGHGVLEMTRQNDTIFHYESKSPVFACQRLKNGNTFVGECVTGRMLEISPKGKIVKETCILPKGVKDGGFAFMRNARRLDNGHFLVAHYGDQCVKEYDANGKVVWKLDVPGGPHSLTRLPNGHTLIAVADKDQNPRLIEVTPEGKTIWEISNADIPGKPLKFLGGFQYFSDGRFLITNWTGHVNPKEKVHLLLVDRQKNVLYSLENTPELQTMSSVYSTDKPAGVASYH”, the “soluble on expression in E. coli” value is listed as “not soluble”.

On to “MIYEIGGHEVSIVRATPGLAKSYYDLLMELYEDPNSYILVNYSKDPPQLESIVERSKNWNVHPHYMHFALYKDKVVGFAGSLLGPDYGPEVQPHIAEIYYGVSKGWRKTGLIYALLYTALSDINAKIVKATAYVENLPSINVLLKIGLRIIAVLEENDFHYMSGKMHDDYLFRGFRSDCLNRLPGLLEKHGISVIR”, for which the “soluble on expression in E. coli” value was “not soluble”.

“MGHHHHHHGGHMSLIGFLTDWGLKSHYVGVAKAVIKRINPSAEIIDITHEVEPFNVRKASHVLYRASLDFPPSTVFLVVVDYGVGTSRKAIVMKTKNDQYFVAPDNGVLTVVAEEYGVAEIREIENRELFYKKNPSFTFHGRDIFAPVAAHLDMGLPLERVGDRLLSYEVLKMRKPVVENEKVIGEVAIVDTFGNVSTNIPFDLFLKLSVDFDDVVRVRVGRKEFKAAVAKAFGDVDTGELLVHPDSAGFLEIAVNLGDASQVLSVKEGDEIEICREGGS”: the “soluble on expression in E. coli” value is “soluble”.

In the case of “MGSDKIHHHHHHMKQMNVVLIGGGTGLSVLARGLREFPIDITAIVTVADNGGSTGKIRDVMDIPAPGDIRNVIAALSDSESILTQLFQYRFGENQVDGHSLGNLVIAGMTNITNDFGHAIKELSKVLNIKGQVIPSTNASVQLNAVMEDGEIVHGETNIPKTHKKIDRVFLEPSDVEPMNEAIEALEQADLIVLGPGSLYTSVISNLCVKGISEALLRTSAPKLYVSNVMTQPGETDNYDVKEHIDALTRQVGEPFIDFVICSSESYSKDVLQRYEEKNSKPVAVHKEQLKDSGIRVLTASNLVEISNEHYVRHNTKVLSKMIYELALELTSTIRFTPSDKKK”, the “soluble on expression in E. coli” value is on record as “not soluble”.

In the case of “MKKTRTANLHHLYHEALPEDVKLTPRVEVDNVHQRRTTDVYEHALTITAWQQIYDQLHPGKFHGEFTEILLDEIQVFREYTGLALRQSCLVWPNSFWFGIPATRGEQGFIGAQGLGSAEIATRPGGTEFELSTPDDYTILGVVISEDVISRQATFLHNPERVLHMLRNQLALEVKEQHKAALWGFVQQALATFSESPETLHQPAVRKVLSDNLLLAMGTMLEEAKPIHSAESISHQGYRRLLSRAREYVLENMSEPLTVLDLCNQLHVSRRTLQNAFHAILGIGPNAWLKRIRLNAVRRELISPWSQSATVKDAAMQWGFWHLGQFATDYQQLFAEKPSLTLHQRMRQWA”, the “soluble on expression in E. coli” value is “not soluble”.

In the case of “MKEDEVNRCQIQNWYPRFKSLTIKTKFHKLPESFINYLIDDSGPFLLPHSVTNEDAMPNRVHNFEEEDDFQVPEEASDDEPLNRPSFPELEIEIRESIETLGGTIIPKLNWSSPKDAAWISPSQNLSCTCFNEIALLFRSSDSLTHDLFNAYDSCSDKVSSRPESFYLALRKWYPSLKPEMEFRCFVKSNELVGICQREVTTFYPVLLNEKDLLKGLIEEFFDDKIRFEFESENYTFDVYVTKERRVKLIDFNTWCGSTLPLMYTWEELEKIHGECDELELRIVESRLSVLPGLKTAVPYDYLDVSAGSGWAQVLKIVEEEFQKDDQSSDEVA”, the “soluble on expression in E. coli” value is recorded as “soluble”.

Source of the values: the DeepSol protein solubility set.
